Experimental data reported in patent US9669247B2 (priority 2011, dated 2017).

How the values were obtained:
[1] = pH 7
[2] = pH 7; remark: listed apart in the source

B1: TsmE (protein)
chain: METDKKTGTSRRSFVKAAGTGAIGIATLPLSTATAFAETDNVELAQSKRKVVLAEQGSFYIGGRTVTGPGKFDPSKPVIPYSNEGATFYINQMYVNFQAPVRPRGLPLVFWHGGGLTGHIWESTPDGRPGFQTLFVQDRHTVYTIDQPGRGRGNIPTFNGPFGQLEEESIVNTVTGNSSKEGAWVRDRLGPAPGQFFENSQFPRGYEDNYFKEMGFSPSISSDEIVDAVVKLVTHIGPCVLVTHSASGVLGMRVATHAKNVRGIVAYEPATSIFPKGKVPEIPPLADKKSQIFPPFEIQESYFKKLAKIPIQFVFGDNIPKNPKSAYWFLDWWRVTRYAHSLSLEAINKLGGQASLLDLPTAGLRGNTHFPFTDRNNVQVASLLSDFLGKHGLDQNES
modifications: Methylophilus sp. S113; Thiefensulfuron Hydrolase TSME
[1]
  specific enzyme activity of TsmE to haloxyfop-R-methyl: 55 U/mg protein
[2]
  specific enzyme activity of TsmE to thifensulfuron: 67 U/mg protein
